The values below come from publication PMC11077089, “Molecular basis of A. thaliana KEOPS complex in biosynthesizing tRNA t^6A” (Nucleic Acids Research, 2024).

Substrate in the series: Nc1ncnc2c1ncn2[C@@H]1O[C@H](COP(=O)(O)OP(=O)(O)OP(=O)(O)O)[C@@H](O)[C@H]1O
Briefly: NADH-coupled ATPase assay (pyruvate kinase / lactate dehydrogenase), Michaelis-Menten. The class given is biochemical, Arabidopsis thaliana. To be noted: no tRNA, 2 μM protein, 0–50 μM ATP, 5 mM MgCl2, pH 7.5, 25°C, BUD32 site.

B1: AtKEOPS (wild-type KEOPS dimer, P2K2B2C2) (Arabidopsis thaliana) (protein)
chain: MDCEENVRDESLVLIKQGAEARVFESTFAGRRSIVKERFSKKYRHPILDAKLTLKRLNAEARCMTKARKLGVCTPVLYAVDTLLHSLTLEYIEGVSVKDIFLEFGTNGVVEERLDDVAAQIGAAIAKLHDGGLAHGDLTTSNMLVRSGTNQLVLIDFGLSVTSTLPEDKAVDLYVLERALLSMHSSCGNVMDRILTAYRKSSKQWSATFNKLAQVRQRGRKRTMIG
notes: reconstituted from KAE1-PCC1-6His and BUD32-CGI121-6His expressed in E. coli; SEC ~200 kDa dimer; some N-terminal KAE1 degradation; with tRNA N6-adenosine threonylcarbamoyltransferase KAE1; EKC/KEOPS complex subunit CGI121; EKC/KEOPS complex subunit PCC1
On to B1, for which the Km – broadly, the substrate concentration at which the rate is half of its maximum – came out at 0.95 ± 0.053 µM and the kcat turned out to be 0.019 ± 0.00073 s^–1.
